Test results taken from publication PMC3472097 (Structure (London, England : 1993), 2012).

B1: nuclear inhibitor of PP1 (NIPP1), residues 1-225 (FHA domain and PP1-binding domain) (domain or fragment, UniProt Q12972 1-225, looked up)
chain: MAAAANSGSSLPLFDCPTWAGKPPPGLHLDVVKGDKLIEKLIIDEKKYYLFGRNPDLCDFTIDHQSCSRVHAALVYHKHLKRVFLIDLNSTHGTFLGHIRLEPHKPQQIPIDSTVSFGASTRAYTLREKPQTLPSAVKGDEKMGGEDDELKGLLGLPEEETELDNLTEFNTAHNKRISTLTIEEGNLDIQRPKRKRKNSRVTFSEDDEIINPEDVDPSVGRFRNM
B2: NIPP1 PP1-binding domain, residues 158-216 (domain or fragment, UniProt Q12972 158-216, looked up)
chain: EEETELDNLTEFNTAHNKRISTLTIEEGNLDIQRPKRKRKNSRVTFSEDDEIINPEDVD
B3: NIPP1 PP1-binding domain, residues 144-225 (domain or fragment, UniProt Q12972 144-225, looked up)
chain: GGEDDELKGLLGLPEEETELDNLTEFNTAHNKRISTLTIEEGNLDIQRPKRKRKNSRVTFSEDDEIINPEDVDPSVGRFRNM

Biological target: protein phosphatase 1 alpha (PP1α), residues 7-330, recombinant (UniProt P62136 7-330)
Sequence (P62136 7-330): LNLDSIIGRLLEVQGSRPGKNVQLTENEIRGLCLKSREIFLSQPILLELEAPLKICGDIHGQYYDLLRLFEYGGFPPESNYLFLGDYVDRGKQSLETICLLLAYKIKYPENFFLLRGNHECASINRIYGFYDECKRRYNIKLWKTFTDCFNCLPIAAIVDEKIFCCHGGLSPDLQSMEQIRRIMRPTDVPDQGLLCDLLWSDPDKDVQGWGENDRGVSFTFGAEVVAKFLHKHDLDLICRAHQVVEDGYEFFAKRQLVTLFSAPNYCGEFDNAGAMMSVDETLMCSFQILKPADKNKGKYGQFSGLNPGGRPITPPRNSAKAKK
Experiment: ITC

Binder | Kd [nM]
B1 | 17.8
B2 | 104
B3 | 73
